Paper PMC9313427, “Identification and Characterization of an RRM-Containing, RNA Binding Protein in Acinetobacter baumannii”

Legend:
Settings in all cases: protein: recombinant; tags: C-terminal 6xHis; label: 5'-biotin; single strand
[1] = molecular target: T1, rAB-Elavl (Acinetobacter baumannii, UniProt D0CAL6 1-86); assay: AlphaScreen saturation (probe length series); EC50 not converged; legend: minimal length for binding is 19 nt; AlphaScreen: 25 mM HEPES pH 7.4, 100 mM NaCl, 0.1% BSA, RT; REMSA: 20 mM HEPES pH 7.5, 50 mM KCl, 450 uM BSA, 0.25% glycerol, RT (gel at 4 C); NMR: 20 mM HEPES
T1 sequence: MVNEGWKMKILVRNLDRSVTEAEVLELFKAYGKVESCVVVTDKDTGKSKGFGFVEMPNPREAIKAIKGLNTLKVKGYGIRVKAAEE

[2] = molecular target: T1, rAB-Elavl; assay: HTRF-FRET saturation; EC50; AlphaScreen: 25 mM HEPES pH 7.4, 100 mM NaCl, 0.1% BSA, RT; REMSA: 20 mM HEPES pH 7.5, 50 mM KCl, 450 uM BSA, 0.25% glycerol, RT (gel at 4 C); NMR: 20 mM HEPES
[3] = molecular target: T1, rAB-Elavl; assay: AlphaScreen saturation (probe length series); EC50; unit implied; named ARE pos 29 nt in text; AlphaScreen: 25 mM HEPES pH 7.4, 100 mM NaCl, 0.1% BSA, RT; REMSA: 20 mM HEPES pH 7.5, 50 mM KCl, 450 uM BSA, 0.25% glycerol, RT (gel at 4 C); NMR: 20 mM HEPES
[4] = molecular target: T1, rAB-Elavl; assay: AlphaScreen saturation; EC50, probe titrated, 500 nM protein; conflicts with 35.62 nM in Fig 8C; AlphaScreen: 25 mM HEPES pH 7.4, 100 mM NaCl, 0.1% BSA, RT; REMSA: 20 mM HEPES pH 7.5, 50 mM KCl, 450 uM BSA, 0.25% glycerol, RT (gel at 4 C); NMR: 20 mM HEPES
[5] = molecular target: T1, rAB-Elavl; assay: AlphaScreen time-course kinetics (koff/kon); koff 0.02687 min-1; kon printed as 2.035 M-1 min-1 (exponent apparently lost); AlphaScreen: 25 mM HEPES pH 7.4, 100 mM NaCl, 0.1% BSA, RT; REMSA: 20 mM HEPES pH 7.5, 50 mM KCl, 450 uM BSA, 0.25% glycerol, RT (gel at 4 C); NMR: 20 mM HEPES
[6] = molecular target: T1, rAB-Elavl; assay: AlphaScreen saturation (probe length series); EC50; unit implied; AlphaScreen: 25 mM HEPES pH 7.4, 100 mM NaCl, 0.1% BSA, RT; REMSA: 20 mM HEPES pH 7.5, 50 mM KCl, 450 uM BSA, 0.25% glycerol, RT (gel at 4 C); NMR: 20 mM HEPES
[7] = molecular target: T1, rAB-Elavl; assay: AlphaScreen saturation; EC50, probe titrated, 500 nM protein; AlphaScreen: 25 mM HEPES pH 7.4, 100 mM NaCl, 0.1% BSA, RT; REMSA: 20 mM HEPES pH 7.5, 50 mM KCl, 450 uM BSA, 0.25% glycerol, RT (gel at 4 C); NMR: 20 mM HEPES
[8] = molecular target: T1, rAB-Elavl; assay: HTRF-FRET saturation; EC50; unit implied; legend: not well bound; AlphaScreen: 25 mM HEPES pH 7.4, 100 mM NaCl, 0.1% BSA, RT; REMSA: 20 mM HEPES pH 7.5, 50 mM KCl, 450 uM BSA, 0.25% glycerol, RT (gel at 4 C); NMR: 20 mM HEPES

B1: ARE pos 11 (ssRNA)
RNA: AUUAUUUAUUA
[1]
  binding result: no binding

B2: ARE pos (ssRNA)
RNA: AUUAUUUAUUAUUUAUUUAUUAUUUA
[2]
  apparent K (half saturation): 35.1 nM
[3]
  apparent K (half saturation): 35.6 nM
[4]
  apparent K (half saturation): 0.5 nM
[5]
  Kd: 13.2 nM

B3: ARE pos 19 (ssRNA)
RNA: AUUAUUUAUUAUUUAUUUA
[6]
  apparent K (half saturation): 64.8 nM

B4: ARE neg (ssRNA)
RNA: ACCACCCACCACCCACCCACCACCCA
[7]
  apparent K (half saturation): 257 nM
[8]
  apparent K (half saturation): 946 nM
